According to US20240117054A1 (DRAGONFLY THERAPEUTICS, published 2024):

T1: human FLT3 (hFLT3) expressed on cells (human, UniProt P36888 27-993)
T1 construct: whole, on cells; One molecule for all cell lines that carry human FLT3; also called RMA-hFLT3; FLT3 on REH cells
T1 sequence (looked up): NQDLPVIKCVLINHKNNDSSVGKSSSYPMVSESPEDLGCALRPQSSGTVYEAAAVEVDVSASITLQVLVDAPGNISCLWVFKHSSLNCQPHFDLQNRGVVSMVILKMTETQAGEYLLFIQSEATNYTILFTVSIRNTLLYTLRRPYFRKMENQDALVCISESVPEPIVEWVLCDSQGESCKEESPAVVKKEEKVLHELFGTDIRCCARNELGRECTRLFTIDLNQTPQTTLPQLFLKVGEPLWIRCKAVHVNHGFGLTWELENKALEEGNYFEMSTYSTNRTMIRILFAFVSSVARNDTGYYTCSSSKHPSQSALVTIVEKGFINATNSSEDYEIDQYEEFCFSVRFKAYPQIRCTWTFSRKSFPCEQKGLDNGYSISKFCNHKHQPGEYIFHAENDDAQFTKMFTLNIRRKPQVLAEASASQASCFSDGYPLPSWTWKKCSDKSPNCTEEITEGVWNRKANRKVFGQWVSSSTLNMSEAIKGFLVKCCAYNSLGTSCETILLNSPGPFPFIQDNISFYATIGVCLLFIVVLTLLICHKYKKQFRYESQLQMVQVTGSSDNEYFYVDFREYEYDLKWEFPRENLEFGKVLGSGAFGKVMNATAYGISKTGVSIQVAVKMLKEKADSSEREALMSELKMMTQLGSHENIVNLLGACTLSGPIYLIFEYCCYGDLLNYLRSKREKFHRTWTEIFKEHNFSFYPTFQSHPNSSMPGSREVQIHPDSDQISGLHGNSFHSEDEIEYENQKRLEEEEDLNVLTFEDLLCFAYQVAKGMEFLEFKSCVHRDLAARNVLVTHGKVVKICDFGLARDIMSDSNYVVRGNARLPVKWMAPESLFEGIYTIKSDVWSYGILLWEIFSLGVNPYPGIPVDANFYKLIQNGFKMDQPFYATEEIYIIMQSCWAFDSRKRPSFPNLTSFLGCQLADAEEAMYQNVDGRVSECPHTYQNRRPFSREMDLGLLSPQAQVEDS

T2: hFLT3-His fusion protein (human, UniProt P36888 27-541, limits assumed)
T2 construct: Soluble recombinant antigen used for immunisation, ELISA, SPR and BLI binning; also called recombinant hFLT3 protein; not shown: His tag
T2 sequence (looked up): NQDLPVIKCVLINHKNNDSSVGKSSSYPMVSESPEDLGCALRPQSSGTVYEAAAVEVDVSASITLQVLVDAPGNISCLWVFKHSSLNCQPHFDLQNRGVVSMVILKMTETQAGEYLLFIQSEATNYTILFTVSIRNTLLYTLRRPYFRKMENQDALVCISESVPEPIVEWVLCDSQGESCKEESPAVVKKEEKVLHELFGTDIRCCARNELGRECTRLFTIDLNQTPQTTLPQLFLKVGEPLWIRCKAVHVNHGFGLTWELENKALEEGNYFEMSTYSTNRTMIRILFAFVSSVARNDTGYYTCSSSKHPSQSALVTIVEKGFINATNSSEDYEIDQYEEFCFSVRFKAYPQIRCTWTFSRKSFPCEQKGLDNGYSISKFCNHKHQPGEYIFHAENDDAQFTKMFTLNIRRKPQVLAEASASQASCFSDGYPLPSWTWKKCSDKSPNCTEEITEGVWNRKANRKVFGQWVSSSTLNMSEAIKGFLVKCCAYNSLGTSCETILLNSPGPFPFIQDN

T3: cynomolgus monkey FLT3 (cFLT3) expressed on RMA cells (cynomolgus monkey, UniProt A0A2K5VQ48 27-993)
T3 construct: whole, on cells; also called RMA-cFLT3; cynomolgus FLT3
T3 sequence: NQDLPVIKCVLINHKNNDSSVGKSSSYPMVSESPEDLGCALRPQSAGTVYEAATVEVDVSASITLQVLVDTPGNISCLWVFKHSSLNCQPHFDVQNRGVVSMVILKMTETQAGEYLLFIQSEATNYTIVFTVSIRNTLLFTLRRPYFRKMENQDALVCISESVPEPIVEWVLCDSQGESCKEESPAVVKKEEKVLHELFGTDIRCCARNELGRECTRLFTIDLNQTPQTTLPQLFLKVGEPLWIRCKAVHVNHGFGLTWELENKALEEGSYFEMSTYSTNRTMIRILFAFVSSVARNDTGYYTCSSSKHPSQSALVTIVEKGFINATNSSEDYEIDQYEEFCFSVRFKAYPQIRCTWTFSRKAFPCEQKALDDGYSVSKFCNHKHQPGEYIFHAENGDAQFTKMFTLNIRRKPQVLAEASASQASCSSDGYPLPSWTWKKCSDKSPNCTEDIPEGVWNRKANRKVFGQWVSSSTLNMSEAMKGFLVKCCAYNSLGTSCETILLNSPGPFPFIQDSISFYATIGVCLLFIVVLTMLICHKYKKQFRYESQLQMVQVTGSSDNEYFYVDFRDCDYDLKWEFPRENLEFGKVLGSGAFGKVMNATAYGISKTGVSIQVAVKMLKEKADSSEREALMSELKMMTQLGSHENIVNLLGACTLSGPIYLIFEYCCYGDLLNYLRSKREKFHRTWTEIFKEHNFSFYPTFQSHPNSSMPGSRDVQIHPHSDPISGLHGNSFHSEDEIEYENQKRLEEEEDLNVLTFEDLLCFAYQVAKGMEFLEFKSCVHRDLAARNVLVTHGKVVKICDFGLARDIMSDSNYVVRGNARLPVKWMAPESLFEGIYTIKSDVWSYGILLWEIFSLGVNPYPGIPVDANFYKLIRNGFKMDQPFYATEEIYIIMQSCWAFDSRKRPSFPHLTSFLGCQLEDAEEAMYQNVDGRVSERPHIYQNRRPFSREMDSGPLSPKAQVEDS


Experiments:
[1] = molecular target: T1, human FLT3 (hFLT3) expressed on cells; experiment: flow cytometry, purified mAb on SEM cells
hFLT3-His fusion protein = molecular target: T2, hFLT3-His fusion protein; experiment: SPR, purified murine subclone mAb, hFLT3-His
[2] = molecular target: T3, cynomolgus monkey FLT3 (cFLT3) …; experiment: flow cytometry, purified mAb on RMA-cFLT3 cells
[3] = molecular target: T1, human FLT3 (hFLT3) expressed on cells; experiment: flow cytometry, purified mAb on RMA-hFLT3 cells
[4] = molecular target: T1, human FLT3 (hFLT3) expressed on cells; experiment: cell-based or functional assay

Binder	EC50 [1]	Max MFI [1]	Kd (hFLT3-His fusion protein)	koff (hFLT3-His fusion protein)	kon (hFLT3-His fusion protein)	EC50 [2]	Max MFI [2]	EC50 [3]	Max MFI [3]	pFLT3 levels (pFLT3 ELISA, EOL-1 cells) [4]	binding result [2]
14A5.E8 (antibody, V domains shown, Purified murine mAb from a hybridoma subclone) VH: EVQLQESGAELVQPGASVRLSCKASGYTFTSYWINWVKQRPGQGLEWIGNIYPGSSIINYNENFKNRATLTVDTSSSTAYMQLSSLTSDDSAVYYCARRVVYLYFDYWGQGTTLTVSS VL: QIVLTQSPAIMSASPGEKVTMTCSASSSVSYMHWYQQKSGTSPKRWIYDTSKLASGVPARFSGSGSGTSYSLTISSMEAEDAATYYCQQWTSKSPTFGGGTKLEIK	~1.07 nM	1960 MFI	15.1 nM	0.0019 s⁻¹	130000 M⁻¹ s⁻¹	1.25 nM	1780 MFI	~2.07 nM	415 MFI		
12H10.G7 (antibody, V domains shown, Purified murine mAb from a hybridoma subclone) VH: EVQLQESGPELVKPGASVKMSCKASGYTFTRYVMHWVKQRPGQGLEWIGFINPYNDDTKYNEKFKGKATLTSDKSSSTAYMELSSLTSEDSAVYHCARWRQLGSLDSWGQGTTLTVSS VL: NIVLTQSPASLAVSLGQRATISCRASESVDTYGSSFVHWYQQKPGQPPKLLIYLASNLESGVPARFSGSGSRSDFTLTIDPVEADDAATYYCQQNNEEPWTFGGGTKLEIK	3.2 nM	2830 MFI	5.4 nM	0.00055 s⁻¹	100000 M⁻¹ s⁻¹	0.94 nM	5260 MFI	0.36 nM	1140 MFI		
1A2.A3 (antibody, V domains shown, Purified murine mAb from a hybridoma subclone) VH: EVQLQESGPELVKPGASVKISCKASGYSFTGYYIHWVKQSPEESLEWIGEIYPNTGITTYNQKFTAKATLTVDKSSNTAYMQLKSLTSEDSAVYYCTRWGDYYGRDYWGQGTSVTVSS VL: DIVLTQSPASLAVSLGQRATISCRASETVDTHGNSFMHWYQQKPGQPPKLLIYRASNLESGIPARFSGSGSRTDFTLTINPVEADDVATYYCQQSNEDPRTFGGGTKLEIK	5.47 nM	1360 MFI	8.5 nM	0.00089 s⁻¹	110000 M⁻¹ s⁻¹	1.82 nM	2830 MFI	0.8 nM	499 MFI		
11F4.B9 (antibody, V domains shown, Purified murine mAb from a hybridoma subclone) VH: EVQLQESGPELVKPGASVKISCKASGYSFTGYYIHWVKQGPEKSLEWIGEIIPSTGSTIYNQKFKAKATLTVDKSSSTAYLQLKSLTSEDSAVYYCERWGDYYGRDYWGQGTSVTVSS VL: DIVLTQSPASLAVSLGQRATISCRASESVDIYGNSFMHWYQQKPGQPPKLLIYRASNLESGIPARFSGSGSRTDFTLTINPVEADDVATYYCQQSNEDPRTFGGGTKLEIK	2.43 nM	1140 MFI	1.7 nM	0.00025 s⁻¹	150000 M⁻¹ s⁻¹	1.23 nM	2590 MFI	0.53 nM	493 MFI		
15A11.C8 (antibody, V domains shown, Purified murine mAb from a hybridoma subclone) VH: EVQLQESGGGLVKTGGSRKLSCAASGFTFSDYGMHWVRHTPEKGLEWVVYISSGGNTIFYTDTVKGRFTISRDNAKNTLFLQMTSLRSEDTAVYFCVRQGYYYAMDYWGQGASVTVSS VL: DIQMTQTTSSLSASLGDRVTIRCRASQDITNYLNWYQQKPDGAVKLLISYTSILQSGVPSRFSGSGSGTDYSLTISNLEQGDVATYFCQQGSSLPWTFGGGTKLEIK	~1.13 nM	3860 MFI	10.5 nM	0.00048 s⁻¹	45000 M⁻¹ s⁻¹	0.82 nM	6510 MFI	0.41 nM	1410 MFI		
FLT3-ligand (ligand, human, UniProt P49771 27-185, looked up) TQDCSFQHSPISSDFAVKIRELSDYLLQDYPVTVASNLQDEELCGGLWRLVLAQRWMERLKTVAGSKMQGLLERVNTEIHFVTKCAFQPPPSCLRFVQTNISRLLQETSEQLVALKPWITRQNFSRCLELQCQPDSSTLPPPWSPRPLEATAPTAPQPP										3 fold	
4H2.E3 (antibody, V domains shown, Purified murine mAb from a hybridoma subclone) VH: EVQLQESGPELVKPGASVKMSCKASGYTFTSYLMHWMKQKPGQGLEWIGYINPYSDGIKYNEKFRDKATLTSDKSSNTAYMELSSLTSEDSAVYYCAHSSGYVGYAMDYWGQGTSVTVSS VL: GIVMTQTTPSVPVTPGESVSISCRSSKSLLHSNGNTYLYWFLQRPGQSPQLLIYRMSNLASGVPDRFSGSGSGTTFTLRISRVEAEDVGVYYCMQHLEYPFTFGSGTKLEIK	7.57 nM	1510 MFI	17.6 nM	0.001 s⁻¹	57000 M⁻¹ s⁻¹	1.56 nM	3450 MFI	0.66 nM	696 MFI		
12C9.E5 (antibody, V domains shown, Purified murine mAb from a hybridoma subclone) VH: EVQLQESGAELVRPGASVKLSCKASGYIFTDYEIHWVKQTPVHGLEWIGAIDPETGITAYSQKFKGKATLTTDTSSSTAYMEFRSLTSEDSAVYYCTRGGLLYWGQGTSVTVSS VL: DVVMTQTPLSLSVTIGQPASISCKSSQSLLYSDGETYLNWLQQRPGQSPKRLMYQVSKLDPGIPDRFSGSGSETDFTLKISRVEAEDLGIYYCLQGTFYPHTFGGGTKLEIK			18.7 nM	0.00063 s⁻¹	34000 M⁻¹ s⁻¹						no binding
4A4.A3 (antibody, V domains shown, Purified murine mAb from a hybridoma subclone) VH: QVTLKESGPGILQPSQTLSLTCSFSGFSLTTYGMGVGWIRQPSGKGLEWLANIWFNDNKYYNSTLKSRLTISKDTSNNQVFLKISSVDTTDTATYYCAQITTVVGTFDYWGQGSPLTVSP VL: RIVMTQSPTTMAASPGEKITITCSASSSISSIYLHWYQQKPGFSPKLLIFRTSDLASGVPPRFGGSGSGTSYSLTIGTMEAEDVATYYCQQGSSFPRTFGGGTKLEIK	3.29 nM	2350 MFI	7.3 nM	0.00082 s⁻¹	110000 M⁻¹ s⁻¹	1.07 nM	5570 MFI	0.72 nM	1020 MFI		
